These are literature values, as cited in patent US7723472B2, “Extracellular matrix binding chimeric proteins and methods of use thereof” (The Regents of the University of California, priority 2005, dated 2010).

In general, Km refers to the concentration of substrate that gives half-maximal velocity.

The conditions of the data set: published value for yCD, Kievit et al. 1999.

B1: yCD: Yeast cytosine deaminase (protein, UniProt Q12178 1-158, looked up)
Cytosine deaminase: MVTGGMASKWDQKGMDIAYEEAALGYKEGGVPIGGCLINNKDGSVLGRGHNMRFQKGSATLHGEISTLENCGRLEGKVYKDTTLYTTLSPCDMCTGAIIMYGIPRCVVGENVNFKSKGEKYLQTRGHEVVVVDDERCKKIMKQFIDERPQDWFEDIGE
With B1, the Michaelis constant (Km) is 800 µM and the Vmax is recorded as 68 μM/min/μg enzyme.
